According to FireProtDB (doi:10.1021/bi060907v):

Details: Thermococcus kodakarensis (strain ATCC BAA-918 / JCM 12380 / KOD1), pH 9, reversible: Yes, whole UniProt chain shown
[1] = 50 °C, GdnHCl, CD, Tris-HCl 20 mM

B1: Ribonuclease HII wild type, O74035 (protein)
chain: MKIAGIDEAGRGPVIGPMVIAAVVVDENSLPKLEELKVRDSKKLTPKRREKLFNEILGVLDDYVILELPPDVIGSREGTLNEFEVENFAKALNSLKVKPDVIYADAADVDEERFARELGERLNFEAEVVAKHKADDIFPVVSAASILAKVTRDRAVEKLKEEYGEIGSGYPSDPRTRAFLENYYREHGEFPPIVRKGWKTLKKIAEKVESEKKAEERQATLDRYFRKV
denaturant m value [1]: 5.64 kcal/mol/M
denaturant midpoint (higher = more stable) [1]: 1.85 M
Tm (Thermal, DSC, Gly-NaOH 20 mM): 85.2 °C
unfolding enthalpy (calorimetric) (Thermal, DSC, Gly-NaOH 20 mM): 137 kcal/mol
unfolding enthalpy (van 't Hoff) (Thermal, DSC, Gly-NaOH 20 mM): 163 kcal/mol
